Experiment: yeast display, Sf9 membrane polyspecificity reagent, FACS + sequencing; frameworks hold sequencing errors
Outline: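 A synthetic nanobody library was expressed on Saccharomyces cerevisiae BJ5465 by galactose induction for 36–48 hours. The library was stained for 1 hour at 4 °C with 10% biotinylated, detergent-solubilized Sf9 membrane reagent and enriched with streptavidin microbeads before FACS. Low and high (top ~1%) gates were set on anti-HA fluorescence for expression and streptavidin fluorescence for reagent binding, and each polyreactivity label reflects the gate of origin.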

| Sequence | polyreactivity (PSR sort gate) |
| --- | --- |
| QVQHDESGGCLVQAGGSLRLSCAASGITFILYDMGWYREAPGKVRELVASITSGGSTDYADSVKGRFTISRDNAKNTVYLQMNSLKPEDTAVYYCAARYVYPYWYGDYYWGQGTQVTVSS | low polyreactivity |
| QVQLVESGGGLVQAGGSLRLSCAASGSNFYQYAMGWYRPAPRKERELVAAISVRAGITYYADSVTGRFTISRDNAKYTVYLQMNSLKPEDTAVYYCAKDHWTTSYDEGDYWGQGTQVTVSS | low polyreactivity |
| QVQLVESGGGLVQAGGSLRLSCAASGSIFEENAMGWYRQAPGKERELVAAITIGGRTNYADSVYGRFTISRDNAKNTVYLQMNSLKPEDTAVYYCAADLSSNKYWRFWTRYYYWGQGTQVTVSS | low polyreactivity |
| QVQLVESGGGLVQAGGSLRLSCAASGRIIAGYAMGLYRQAPGKERELVAAISSGGSTYYADSVKGRFTISRDNAKNTVYLQMNSLKPSDTAVYYCAAGGPRVYGTKFYYCGQGTQVTVSS | high polyreactivity |
| QVQLVESGGGLVQAGGSLRLSCAASGIIFFIYAMGWYRQAPGKERELVARISWRGGSTSYADSVKGRFTISRDNAKNTVYLQMNSLKPEDTAVYYCAAGVYSFRYDSWGQGTQVTVSS | low polyreactivity |
| QVQLVESGGGLVQAGGSLRLSCAASGFIFDSYAMGWYRQAPGKERELVAAITYSGSSTYYADSVKGRFTISRDNAKNTVYLQMNSLKPEDTAVYYCAAVWRYSHLYGYWGQGTQVTVSS | high polyreactivity |
| QVHLLESGGGLDHAGGSLRLSCAASGRIFRYYFMGWYRQAPGKERELVAAISRGGRTYYADSVKGRFTISRDNAKNTVYLQMNSLKPEDTAVYYCDAVITQTDTGYGPSFRVYYWGQGTKVTVSS | high polyreactivity |
| QVQLEESGGGLVQAGGSLRLSCAASGITLGYYAMGWYRPAPGKERELVAAITWSGTSTYYADSVKGRFTISRDNAKNTVYLQMNSLKPEDTADYYCAAGFISQYQERGYWGQGTQVTVSS | low polyreactivity |
| QVKLVESGGGLFQAGGSLRLSCAASVSIFYGNAIVWYRQAPGKERELVAAISSRGTRTYYADSVKGRFTISRDNAKNTVYLQMNSLNPEATAVYYCAAADYRFYNGPYSRRWLYGYWGQGTQVTVSS | high polyreactivity |
| QVQLVESGGGLVQAGGSLRLSCAAYGFIFWYYDMGWYRQAPGKETELVAGITSGGSTNYEDSVKGRFTISRDNATNTVYLQMNRLKPEDTAVYYCAATYYGYHIRDDYWGQGTLVTVSS | low polyreactivity |
| QVQLVESGGGLVQAGGSLRLSCAASGRTFSYYAMGWYRPAPGKEREFVAAISSTGTSTYYADSVKGRFTISRDNAKNTVYLQMNSLKPEDTAVYYCNARVATYRLHSKFYYWGQGTQVTVSS | high polyreactivity |
| QVQLEESGGGLVQAGGSLRIRCAASGSTFVGYAMGWYRQAPGKERELVAAITSSGGRTYYADSVKGRFTISRDNAKNTVYLQMNSLKPEDTAVYYCAAPRARIGGSYDYWGQGTQVTGSS | high polyreactivity |
| QVQLVESGGGLVQAGGSLRLSCAASGSTFHRNAMGWYRQAPGKERELVASISIGGSTNYADSVKGRYTISRDNAKNTVYLQMNSLKPEDTAVYYCATEPNPRRPRVDYDYWGQGTQVTVSS | low polyreactivity |
| QVQLVESGGGIVQAGGSFRLSCAASGSIFVVYAMGWYRQAPGKERELVAAITSGGSTYYADSVKGRFTISRDNAKNTVYLQMNSLKPEDTAVYYCATTYRDGVYELTTFDYWGQGTQVTVSS | low polyreactivity |
| QVQLVDSGGGLVQAGGSLRLSCAASGFIFTDYAMGLYRQAPGQEREFVAAIDWSGGNTYYADSVTGRFTISRDNAKNTVYLQMNSLKPEDTAVFYCAASGSAREYVYWGQGTQVTVSS | low polyreactivity |
| QVQLVESGGGLVQAGGSLRLSCAASGFTFVYYAMGWYRQAPGKEREMVAGISSSDTTSYADSVKGRFTISRDNAKNTVYLQMNSLKPEDTEVYYCATRYWRRYPSTWSYPYYYWGQGTQVTVSS | high polyreactivity |
| QVQLVESGGGLVQAGGSLRLSCAASGRIFTGYAMGWYRQAPGKERELVAAISSSGGTTYYADSVKGRFTISRDNAKNTVYLQMNSLKPEDTAVYYCATDYSYSVDALKYLLYDYWGQGTQVTVSS | low polyreactivity |
| QVQLVESGGGLVQAGGSLRLSCAASGSIFGRNDMGWYRQAAGKERELVAAISKRGGRTYYADSVKGRFTISRDNAKNTVYLQMNSLKPEDTAVYYCAADQPTLAYPGGYSAGMDYWGQGTQVTVSS | high polyreactivity |
| QVQLVESGGGLVQAGGSLRLSCAASGRIFYRNAMGWYRQAPGKEREFVAAISSGGSTYYADSVKGRFTISRDNAKNTVYLQMNSLKPEDTAVYYCATRSPERRVYYTYSGLFDYWGQGTQVTVSS | high polyreactivity |
| QVQLVESGGGLVQAGGSLRLICAASGSTFDGYAMGWYRQAPGKERELVAAISKNGVRTYYADSVKGRFTISRDNAKNTVYLLMNSLKPEDTAVYYCAKDIIKYDYDYWGQGTQVTVSS | low polyreactivity |
| QVQLVESGGGLVQAGGSLRLSCAASGRIFAWYAMGWYRQAPGKEREFVAASTYRAARTYYADSVKGRFTISRDNAKNTVYLQMNSLNPEDTAVYYCNRQFGRRVYISHPGPGYWGQGTQVTVSS | high polyreactivity |
| QVQLVESGGGLVQAGGSLRLSCAASGLIFRHYVMGWYRQAPGKETELVAAITSRGGTTYYADSVKGRFTISRDNAKNTVYIQMNSLKPEDTAVYYCNAVDIYPTRYEYDYWGQGTQVTVSS | high polyreactivity |

| Sequence | polyreactivity (PSR sort gate) |
| --- | --- |
| QVQSVESCGGLVQAGRSLRLSCAPSGSIFADYAMGWYSQAPGKERELVAVISRRGGTTYYADSVKGRFTISRDNAKNSVYLQMNSLKPEDTAVYYCAARRSFNEYDYWGKGTQVTVSS | high polyreactivity |
| QVQLVESGGGLVQAGGSLRLSCAASGFTFPFYAMGWYRQAPGKERELVAPISRSGTRTYYADSVKGRFTISRDNAKNTVYLQMNSLKPEDTAVYYCAAAYHNGYLSEGYWEHYYWGQGTQVTVSS | high polyreactivity |
| QVQLVESGGGLVQAGGSLRLSCAASGSIFWRYAMGWYRQAPGKERELVAAINYSTTRTYYADSVKGRFTISLDNAKNTVYLQMNSLKPEDTAVYYCAADSRVDEGEYWGQGTQVTVSS | high polyreactivity |
| QVQLVESGGGLVQAGGSLRLSCAASGLTFARYAMGWYRQAPGKERELVAGISWSGGRTYYADSVKGRFTISRDNAKNTVYLQMNSLKPEDTAVYYCATTQFQRSGYYYWGQGTQVTVSS | high polyreactivity |
| QVQLVESGGGLVQAGGSLRLSCAASGSTFVRYVMGWYRQAPGKERELVAAISRRGGSTYYADSVKGRFTIARDNAKNTVYLQMNSLKPDDTAVYYCAAVYRLRGAFSRGYWGQGTQVTVSS | high polyreactivity |
| QVQLVESGGGLVQAGGSLRLSCAASGFTFGQYVMGWYRQAPGKERELVAAISFSGGSTYYADSVKGRFTISRDNAKNTVSVQMTSLKPEDTAVYYCAADVNVLYLLRFSHRSNYGYWGQGTQVTVSS | high polyreactivity |
| QVQLVESGGGIVQAGGSLRLSCAASGSILSTYAMGWYRQAPGKERELVDSISSNAGSTYYSDSVKGRFTISRDNAKNTVYLQMNSLKPEDSAVYYCNKVYGGGTYDYWGQGTQVTVSS | low polyreactivity |
| QVQLVESGGGLVQAGGSLRLSCAASGFIFHRYAMGWYRQAPGKERELVAAITGRGSSTYYADSVKGRFTISRDNAKNTVYLQMNSLKPEDTAVYYCNAYRYQVYDTGWFGYWGQGTQVTVSS | high polyreactivity |
| QVQLVESGVGLVQAGGSLRLSCAASGFTFARYAMGRYRQAPGKEREFVAAISLSTTSTYYADSVKGRFTISRDYANNNVFLQMNSLKPEDTAVYYCATDIVGPHFDYWGQGTQVSVSS | low polyreactivity |
| QVQLVESGGGLVQAGGSLRLSCAASGLIFYKNAMAWYRQAPGKERELVAAIDWSSGSTYYADSVKGRFTISRDNAKNTVYLQMNSLIPEDTAVYYCAAEYVHHASGDFRTLYYYWGQGTQVTVSS | low polyreactivity |
| QVQLVESGGGIVQAGGSLRLICAASGLIFTLYAMGWSRQAPGKERQLVAVISSAGSTNYADSVKGRFTISRDTAKNTVYLQMNSLKPEETAVYYCNAEPTTPYWDYWAYEDDYWGQGTQVTVSS | low polyreactivity |
| QVQLVESGGGLVQAGGSLRLSCAASGRIYGNAMGWYRQAPGKERELDAAISFSVSSTNYADSVKGRFTISRDNAKNTVYLQMNSLKPEDTAVYYCAADWIGPTYPEMYYWGQGTQVTVSS | low polyreactivity |
| QVQLVESGGGLVQAGGSLRLSCAASGRIFRGYAMGWSRQAPGKERELVAVISYSGTRTYYADSVKGRFTISRDNAKNTVYLQMNSLKPEDTAVYYCNARANGFKDGYWGQGTQVTVSS | high polyreactivity |
| QVQLVESGGGLVQAGGSLRLSCAASGFTIYYYTMGWYRQAHGKERELVAAITWRGGSTNYADSVKGRFTISRDNAKNTVYLQMNSLKPEDTAVYYCAAVTYWFWPGMDYWGQGTQVTVSS | low polyreactivity |
| QVQLVESGGGLVQAGGSLRLSCAASGRTFPGYAMGWYRQAPGKERELVAGISYRGGSTYYADSVKGRITISRDIAKNSVYLQMISLKPEDTAVYFCARDYSRHKGDLWGQGTQVTVSS | low polyreactivity |
| QVQLVESGGGLVQAGGSLRLSCAASGRIFHWYTMGWYRQAPGKERELVATITDGGSTYYADSVKGRFTISRDNAKNTVYLQMNSLKPEDTAVYYCAARKIGTRRLRYPYYIFGYWGQGTQVTVSS | high polyreactivity |
| QVQLVESAGGLVQAGGSLRLSCAASGSTFQWYAMGWSRQAPGKERELVAAIDSDGGTNYADSVKGRFTISRDNAKNTVYLQMNSLKPEDTAVYYCAVKPFYYGSEFDYWGQGTQVTVSS | low polyreactivity |
| QVQLVESGGGLVQAGGSLRLSCAASGRIFRFYAMGWYRQAPGKERELVAAINSRGGSTYYADSVKGRFTISRDNAKNTVYLQMNSLKPEDTAFYYCNARSGFGYGYGYWGQGTQVTVSS | high polyreactivity |
| QVQLVESGGGLVQAGGSLRLSCAASGFTFSSYAMGWYRQAPGKERELVAAISTRGGSTYYADSVKGRFTISRDNAKNTVYLQMNSLKPEETAVYYCAARYGTSYKVRWTYYAFDYWGQGTQVTVSS | low polyreactivity |
| QVQLVESGGGLVQAGGTLRLSCAASGRIFRYNGMGWYRQAPVKERELVAGINWIGGRTYYADSVKGRFTISRDNAKNTVYLQMNSLKPEDTAVYYCAAYWYYIKATTDSDARFDYWGQGTQVTVSS | high polyreactivity |
| QVQLVESGGCLVQAGGSLRLSSAASGRTFDHYAMGWYRQAPGKERELDAAITSGGSTYYADSVKGRFTISRDNAKNTVYLQMNSLKPEDTAVYYCNKDSSFWGSYIAQVNERDYWGQGTQVTVSS | low polyreactivity |
